Assay results as given in US20040091478A1.
Blank lines part the entries; values can stand above or below the binder they belong to.

Target: F1024-1-3 antibody (monoclonal antibody produced by hybridoma F1024-1-3, Accession No. FERM BP-7511)
Experiment: competition ELISA: 4-fold diluted serum mixed with 1 µg/mL peroxidase-labeled F1024-1-3, added to immobilised human CD14(1-356)

inhibition ratio of binding of F1024-1-3 antibody to human CD14: 57%
B2: crab-eating macaque soluble type CD14 (in serum) (receptor)
chain: TTPEPCELDDEDFRCVCNFSEPHPDWSEAFQCVSAVEVEIRVGGLSLEPFLTRVDPDADPRQYADTIKALRVRRLTVGAAQVPAQLLVGALRVLAYSRLQELTLEDLEITGTMPPLPLEATGLALSSLRLHNVSWATGRSWLAELQQWLKPGLKVLSIAQAHSPAFSCEQVRAFPALTSLDLSDNPGLGERGLIAALCPHKFPALQNLALRNTGMETPTGVCAALAAAGVQPHSLDLSHNSLRATANPSAPRCMWSSALNSLNLSFAGLEQVPKGLPAKLRVLDLSCNRLNRRPRPDELPQVDNLALDGNPFLVPGTALPQEGSMN

inhibition ratio of binding of F1024-1-3 antibody to human CD14: 83%
B3: soluble type CD14 purified from human serum (receptor)
chain: TTPEPCELDDEDFRCVCNFSEPQPDWSEAFQCVSAVEVEIHAGGLNLEPFLKRVDADADPRQYADTVKALRVRRLTVGAAQVPAQLLVGALRVLAYSRLKELTLEDLKITGTMPPLPLEATGLALSSLRLRNVSWATGRSWLAELQQWLKPGLKVLSIAQAHSPAFSCEQVRAFPALTSLDLSDNPGLGERGLMAALCPHKFPAIQNLALRNTGIETPTGVCAALAAAGVQPHSLDLSHNSLRATVNPSAPRCMWSSALNSLNLSFAGLEQVPKGLPAKLRVLDLSCNRLNRAPQPDELPEVDNLTLDGNPFLVPGTALPHEGSMNSGVVPACARSTLSVGVSGTLVL

Second part, the binder before the results:

B1: rhesus monkey soluble type CD14 (in serum) (receptor)
chain: B2 chain
inhibition ratio of binding of F1024-1-3 antibody to human CD14: 44%

B4: rabbit soluble type CD14 (in New Zealand white rabbit serum) (receptor, UniProt Q28680 18-342, looked up)
chain: STDTPEPCELDDDDIRCVCNFSDPQPDWSSALQCMPAVQVEMWGGGHSLEQFLRQADLYTDQRRYADVVKALRVRRLTVGAVQVPAPLLLGVLRVLGYSRLKELALEDIEVTGTAPPPPPLEATGPALSTLSLRNVSWPKGGAWLSELQQWLKPGLQVLNIAQAHTLAFSCEQVRTFSALTTLDLSENPGLGERGLVAALCPHKFPALQDLALRNAGMKTLQGVCAALAEAGVQPHHLDLSHNSLRADTQRCIWPSALNSLNLSFTGLQQVPKGLPAKLNVLDLSCNKLNRAPQPGELPKVVNLSLDGNPFLVPGASKLQEDLTN
inhibition ratio of binding of F1024-1-3 antibody to human CD14: 52%
